These results are taken from patent US20210214414A1 (Pfizer, published 2021).

Assay [1] deals with T1, Human SLIT2-N (human, UniProt O94813 31-1121, limits assumed).
T1 construct: domain: SLIT2-N (N terminal fragment); Soluble analyte in SPR, d2-labelled in HTRF, overexpressed on HEK293 cells in flow cytometry; also called human SLIT2-N (N terminal fragment)
T1 sequence (looked up): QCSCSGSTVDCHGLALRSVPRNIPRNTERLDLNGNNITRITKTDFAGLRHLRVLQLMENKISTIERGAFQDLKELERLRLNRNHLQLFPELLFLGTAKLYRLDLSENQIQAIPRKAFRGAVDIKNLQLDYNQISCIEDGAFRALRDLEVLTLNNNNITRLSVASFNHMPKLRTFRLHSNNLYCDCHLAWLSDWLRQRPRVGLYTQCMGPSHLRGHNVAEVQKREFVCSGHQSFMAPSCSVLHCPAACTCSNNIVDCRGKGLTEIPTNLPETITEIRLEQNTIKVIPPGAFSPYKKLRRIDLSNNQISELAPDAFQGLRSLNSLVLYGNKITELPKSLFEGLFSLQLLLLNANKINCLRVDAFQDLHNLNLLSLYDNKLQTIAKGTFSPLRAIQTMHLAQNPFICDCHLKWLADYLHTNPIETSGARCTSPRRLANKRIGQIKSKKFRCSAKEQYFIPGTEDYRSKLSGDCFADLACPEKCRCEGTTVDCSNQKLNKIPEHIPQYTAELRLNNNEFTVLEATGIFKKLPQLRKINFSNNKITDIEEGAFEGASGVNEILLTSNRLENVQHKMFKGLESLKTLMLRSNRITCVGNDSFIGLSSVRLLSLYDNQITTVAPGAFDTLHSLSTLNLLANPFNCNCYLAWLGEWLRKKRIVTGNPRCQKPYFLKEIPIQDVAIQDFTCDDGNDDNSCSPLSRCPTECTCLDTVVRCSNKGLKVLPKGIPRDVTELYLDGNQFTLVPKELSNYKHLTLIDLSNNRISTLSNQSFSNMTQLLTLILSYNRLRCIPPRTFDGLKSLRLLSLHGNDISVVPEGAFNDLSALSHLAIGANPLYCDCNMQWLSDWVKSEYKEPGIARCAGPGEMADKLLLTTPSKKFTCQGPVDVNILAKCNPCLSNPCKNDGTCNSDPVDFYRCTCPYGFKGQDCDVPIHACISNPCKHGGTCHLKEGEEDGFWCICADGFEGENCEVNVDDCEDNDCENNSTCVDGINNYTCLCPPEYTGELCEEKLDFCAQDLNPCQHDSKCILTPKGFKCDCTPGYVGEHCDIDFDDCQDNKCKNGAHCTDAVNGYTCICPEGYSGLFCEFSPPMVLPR
In words: flow cytometry, AF647-labelled ROBO2-Fc 2.2 on HEK293 cells overexpressing human SLIT2-N. On the procedure: (§1) After incubation, 150 μL of FACS buffer was added per well to wash the cells. After washing, cells were resuspended in buffer for data acquisition on a Fortessa Flow Cytometer.

The target of assay [2] is T1, Human SLIT2-N. In words: HTRF competition: d2-labelled human SLIT2-N binding to human ROBO2 on HEK293 cells; geometric mean, n=4; Table 2 species panel; geometric mean, n=4. Here is the method: After incubation, fluorescence at 665 nm and 620 nm was measured on an Envision multilabel plate reader. The HTRF Ratio was calculated as follows: fluorescence at 665 nm/fluorescence at 620 nm×10,000. […] The IC₅₀ for each SLITx-N was determined using an 11-point, 4-fold dilution series with a top concentration of 4000 nM.
(TR-FRET usually uses a lanthanide donor and a delayed reading to cut background.)

In a further assay the target is T2, Rat SLIT2-N (rat, UniProt Q9WVC1 31-766, limits assumed).
T2 construct: domain: SLIT2-N (N terminal fragment)
T2 sequence (looked up): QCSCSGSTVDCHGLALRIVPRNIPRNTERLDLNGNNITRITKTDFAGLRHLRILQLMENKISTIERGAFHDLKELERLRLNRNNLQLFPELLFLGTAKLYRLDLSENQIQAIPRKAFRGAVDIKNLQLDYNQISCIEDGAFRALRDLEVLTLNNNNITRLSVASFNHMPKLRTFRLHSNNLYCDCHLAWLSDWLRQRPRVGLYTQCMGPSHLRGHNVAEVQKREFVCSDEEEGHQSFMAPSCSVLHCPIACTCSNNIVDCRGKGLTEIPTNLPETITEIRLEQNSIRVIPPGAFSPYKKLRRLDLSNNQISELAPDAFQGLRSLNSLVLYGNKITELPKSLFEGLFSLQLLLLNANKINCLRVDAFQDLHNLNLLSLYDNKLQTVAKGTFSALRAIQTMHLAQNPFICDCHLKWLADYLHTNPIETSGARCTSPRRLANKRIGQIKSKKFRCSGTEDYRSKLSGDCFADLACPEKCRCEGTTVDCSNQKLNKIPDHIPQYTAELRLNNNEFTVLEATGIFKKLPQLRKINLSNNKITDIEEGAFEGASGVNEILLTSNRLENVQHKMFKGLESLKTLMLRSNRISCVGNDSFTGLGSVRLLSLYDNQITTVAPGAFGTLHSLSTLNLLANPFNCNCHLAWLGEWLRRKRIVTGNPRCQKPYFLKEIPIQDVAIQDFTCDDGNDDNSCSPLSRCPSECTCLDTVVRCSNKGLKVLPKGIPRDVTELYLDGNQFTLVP
The assay is described as follows: SPR, ROBO2-Fc 2.2 captured by anti-human Fc on a C1 chip, rat SLIT2-N as analyte, 1:1 model. On the procedure:
HBS-EP was used as a diluent. […] An 8 point 2-fold dilution series was performed on the SLIT2 ligands, ranging from 2 nM to 15.6 pM using HBS-EPB as the diluent. […] Association of the indicated SLIT2 ligand was followed for 120 s and dissociation monitored for 180 s. The apparent binding affinity was determined using a simple 1:1 interaction model of the kinetic rate constants.
(In general: SPR reads the build-up and loss of mass on a sensor chip optically.)

The target in assay [3] is T1, Human SLIT2-N. The assay is described as follows: flow cytometry, AF647-labelled ROBO2-Fc 2.2 on HEK293 cells overexpressing human SLIT2-N (FIG. 5). On the procedure:
as §1

B1: ROBO2-Fc 2.2 (Fc fusion)
chain: SRLRQEDFPPRIVEHPSDVIVSKGEPTTLNCKAEGRPTPTIEWYKDGERVETDKDDPRSHRMLLPSGSLFFLRIVHGRRSKPDEGSYVCVARNYLGEAVSRNASLEVALLRDDFRQNPTDVVVAAGEPAILECQPPRGHPEPTIYWKKDKVRIDDKEERISIRGGKLMISNTRKSDAGMYTCVGTNMVGERDSDPAELTVFERGGSGGSEPKSSDKTHTCPPCPAPEAAGAPSVFLFPPKPKDTLMISRTPEVTCVVVDVSHEDPEVKFNWYVDGVEVHNAKTKPREEQYNSTYRVVSVLTVLHQDWLNGKEYKCKVSNKALPAPIEKTISKAKGQPREPQVYTLPPSREEMTKNQVSLTCLVKGFYPSDIAVEWESNGQPENNYKTTPPVLDSDGSFFLYSKLTVDKSRWQQGNVFSCSVMHEALHNHYTQKSLSLSPG
notes: Labelled with Alexa Fluor 647 in the flow cytometry assay; also called ROBO-Fc 2.2; ROBO2-Fc 2.2-AF647
As a reminder, the EC50 is the concentration needed to bring the measured effect to its halfway point. Low values mean greater potency, high ones weaker potency. The term IC50 denotes the concentration at which inhibition is half-maximal. Low values mean greater potency, high ones weaker potency. In general, Kd refers to the equilibrium constant for the complex coming apart. As for B1, the figures for the EC50 with Human SLIT2-N [1] and with Human SLIT2-N [3] were 8.6 nM and 9 nM, respectively. In the assay with Human SLIT2-N [2], the IC50 came out at 3.9 nM. This molecule displayed a Kd with Rat SLIT2-N of 0.543 nM.
